This passage reports Kd results from paper PMC4655838 (2015).

Assay in all cases: ITC
For orientation: ITC needs no label: the signal is the heat of the interaction.

The target in experiment [1] is aprataxin FHA domain (residues 1-105).
Experiment [2] has as its target T1, APLF FHA domain (residues 1-106) (UniProt Q8IW19 1-106).
T1 chain: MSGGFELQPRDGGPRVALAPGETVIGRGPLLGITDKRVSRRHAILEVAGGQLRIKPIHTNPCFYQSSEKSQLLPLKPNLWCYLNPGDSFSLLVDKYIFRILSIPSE

Experiment [3] addresses aprataxin FHA domain K38A (residues 1-105).

Square brackets hold non-standard residues; d marks the D form. Ends that are not written are not given here. pT = C[C@@H](OP(=O)(O)O)[C@H](N)C(=O)O; pS = N[C@@H](COP(=O)(O)O)C(=O)O

By Kd is commonly meant a measure of binding affinity in units of concentration. A high value points to a looser complex.

aprataxin FHA domain K38A (residues 1-105), sequence (chain, as listed by the source K38A): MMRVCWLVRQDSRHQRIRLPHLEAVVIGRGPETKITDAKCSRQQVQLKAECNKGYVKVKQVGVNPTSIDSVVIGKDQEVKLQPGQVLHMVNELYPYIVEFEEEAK
aprataxin FHA domain (residues 1-105), sequence (chain, as listed by the source): as the sequence (chain, as listed by the source K38A) above, with A38K counted along it

B1: XRCC1 515-529 peptide phosphorylated solely on Thr523 (peptide)
peptide: YAGSTDENTDSEEHQ
HELM: PEPTIDE1{Y.A.G.S.T.D.E.N.[C[C@@H](OP(=O)(O)O)[C@H](N[*:1])C(=O)[*:2]].D.S.E.E.H.Q.[am]}$$$$V2.0; N-terminus assumed
SMILES: C[C@H](NC(=O)[C@@H](N)Cc1ccc(O)cc1)C(=O)NCC(=O)N[C@@H](CO)C(=O)N[C@H](C(=O)N[C@@H](CC(=O)O)C(=O)N[C@@H](CCC(=O)O)C(=O)N[C@@H](CC(N)=O)C(=O)N[C@H](C(=O)N[C@@H](CC(=O)O)C(=O)N[C@@H](CO)C(=O)N[C@@H](CCC(=O)O)C(=O)N[C@@H](CCC(=O)O)C(=O)N[C@@H](Cc1c[nH]cn1)C(=O)N[C@@H](CCC(N)=O)C(N)=O)[C@@H](C)OP(=O)(O)O)[C@@H](C)O
Consider B1, for which the results for the Kd in experiment [1] and in experiment [2] were 42 µM and 35 µM, respectively.

B2: XRCC1 515-529 peptide phosphorylated on Ser518 and Thr519 (peptide)
peptide: YAGSTDENTDSEEHQ
HELM: PEPTIDE1{Y.A.G.[O=C([C@H](COP(=O)(O)O)N[*:1])[*:2]].[C[C@@H](OP(=O)(O)O)[C@H](N[*:1])C(=O)[*:2]].D.E.N.T.D.S.E.E.H.Q.[am]}$$$$V2.0; N-terminus assumed
SMILES: C[C@H](NC(=O)[C@@H](N)Cc1ccc(O)cc1)C(=O)NCC(=O)N[C@@H](COP(=O)(O)O)C(=O)N[C@H](C(=O)N[C@@H](CC(=O)O)C(=O)N[C@@H](CCC(=O)O)C(=O)N[C@@H](CC(N)=O)C(=O)N[C@H](C(=O)N[C@@H](CC(=O)O)C(=O)N[C@@H](CO)C(=O)N[C@@H](CCC(=O)O)C(=O)N[C@@H](CCC(=O)O)C(=O)N[C@@H](Cc1c[nH]cn1)C(=O)N[C@@H](CCC(N)=O)C(N)=O)[C@@H](C)O)[C@@H](C)OP(=O)(O)O
Regarding B2, the Kd in experiment [3] was 12.8 µM; in experiment [1] it was 1.5 µM; in experiment [2], 8.1 µM.

B3: XRCC4 229-237 peptide phosphorylated on Ser232, Thr233 and Ser237 (peptide)
peptide: YDE[pS][pT]DEE[pS]-NH2
modifications: N-terminus assumed
SMILES: C[C@@H](OP(=O)(O)O)[C@H](NC(=O)[C@H](COP(=O)(O)O)NC(=O)[C@H](CCC(=O)O)NC(=O)[C@H](CC(=O)O)NC(=O)[C@@H](N)Cc1ccc(O)cc1)C(=O)N[C@@H](CC(=O)O)C(=O)N[C@@H](CCC(=O)O)C(=O)N[C@@H](CCC(=O)O)C(=O)N[C@@H](COP(=O)(O)O)C(N)=O
For the molecule B3, the Kd was 1.3 µM in experiment [3], 0.14 µM in experiment [1] and 0.42 µM in experiment [2].

B4: YAGSTDENpTDpSEEHQ (peptide)
chain: YAGSTDENTDSEEHQ
HELM: PEPTIDE1{Y.A.G.S.T.D.E.N.[C[C@@H](OP(=O)(O)O)[C@H](N[*:1])C(=O)[*:2]].D.[O=C([C@H](COP(=O)(O)O)N[*:1])[*:2]].E.E.H.Q.[am]}$$$$V2.0; N-terminus assumed
SMILES: C[C@H](NC(=O)[C@@H](N)Cc1ccc(O)cc1)C(=O)NCC(=O)N[C@@H](CO)C(=O)N[C@H](C(=O)N[C@@H](CC(=O)O)C(=O)N[C@@H](CCC(=O)O)C(=O)N[C@@H](CC(N)=O)C(=O)N[C@H](C(=O)N[C@@H](CC(=O)O)C(=O)N[C@@H](COP(=O)(O)O)C(=O)N[C@@H](CCC(=O)O)C(=O)N[C@@H](CCC(=O)O)C(=O)N[C@@H](Cc1c[nH]cn1)C(=O)N[C@@H](CCC(N)=O)C(N)=O)[C@@H](C)OP(=O)(O)O)[C@@H](C)O
With B4, the Kd in experiment [1] amounted to 33 µM; in experiment [2] it was 17 µM.

B5: XRCC1 515-529 peptide phosphorylated on Thr519 (peptide)
peptide: YAGSTDENTDSEEHQ
HELM: PEPTIDE1{Y.A.G.S.[C[C@@H](OP(=O)(O)O)[C@H](N[*:1])C(=O)[*:2]].D.E.N.T.D.S.E.E.H.Q.[am]}$$$$V2.0; N-terminus assumed
SMILES: C[C@H](NC(=O)[C@@H](N)Cc1ccc(O)cc1)C(=O)NCC(=O)N[C@@H](CO)C(=O)N[C@H](C(=O)N[C@@H](CC(=O)O)C(=O)N[C@@H](CCC(=O)O)C(=O)N[C@@H](CC(N)=O)C(=O)N[C@H](C(=O)N[C@@H](CC(=O)O)C(=O)N[C@@H](CO)C(=O)N[C@@H](CCC(=O)O)C(=O)N[C@@H](CCC(=O)O)C(=O)N[C@@H](Cc1c[nH]cn1)C(=O)N[C@@H](CCC(N)=O)C(N)=O)[C@@H](C)O)[C@@H](C)OP(=O)(O)O
In the case of B5, the Kd in experiment [3] came out at 46.3 µM; in experiment [1], 17 µM; in experiment [2], 30 µM.

B6: XRCC1 515-529 peptide phosphorylated on Ser518, Thr519 and Thr523 (peptide)
peptide: YAG[pS][pT]DEN[pT]DSEEHQ-NH2
modifications: N-terminus assumed
SMILES: C[C@H](NC(=O)[C@@H](N)Cc1ccc(O)cc1)C(=O)NCC(=O)N[C@@H](COP(=O)(O)O)C(=O)N[C@H](C(=O)N[C@@H](CC(=O)O)C(=O)N[C@@H](CCC(=O)O)C(=O)N[C@@H](CC(N)=O)C(=O)N[C@H](C(=O)N[C@@H](CC(=O)O)C(=O)N[C@@H](CO)C(=O)N[C@@H](CCC(=O)O)C(=O)N[C@@H](CCC(=O)O)C(=O)N[C@@H](Cc1c[nH]cn1)C(=O)N[C@@H](CCC(N)=O)C(N)=O)[C@@H](C)OP(=O)(O)O)[C@@H](C)OP(=O)(O)O
As to B6, the Kd in experiment [3] was 3.8 µM; in experiment [1], 0.5 µM; in experiment [2], 11 µM.

B7: XRCC4 229-237 peptide phosphorylated on Ser232 and Thr233 (peptide)
peptide: YDESTDEES
HELM: PEPTIDE1{Y.D.E.[O=C([C@H](COP(=O)(O)O)N[*:1])[*:2]].[C[C@@H](OP(=O)(O)O)[C@H](N[*:1])C(=O)[*:2]].D.E.E.S.[am]}$$$$V2.0; N-terminus assumed
SMILES: C[C@@H](OP(=O)(O)O)[C@H](NC(=O)[C@H](COP(=O)(O)O)NC(=O)[C@H](CCC(=O)O)NC(=O)[C@H](CC(=O)O)NC(=O)[C@@H](N)Cc1ccc(O)cc1)C(=O)N[C@@H](CC(=O)O)C(=O)N[C@@H](CCC(=O)O)C(=O)N[C@@H](CCC(=O)O)C(=O)N[C@@H](CO)C(N)=O
Consider B7, for which the Kd came out at 1.9 µM in experiment [3], 0.25 µM in experiment [1] and 0.47 µM in experiment [2].

B8: XRCC4 229-237 peptide phosphorylated on Thr233 (peptide)
peptide: YDESTDEES
HELM: PEPTIDE1{Y.D.E.S.[C[C@@H](OP(=O)(O)O)[C@H](N[*:1])C(=O)[*:2]].D.E.E.S.[am]}$$$$V2.0; N-terminus assumed
SMILES: C[C@@H](OP(=O)(O)O)[C@H](NC(=O)[C@H](CO)NC(=O)[C@H](CCC(=O)O)NC(=O)[C@H](CC(=O)O)NC(=O)[C@@H](N)Cc1ccc(O)cc1)C(=O)N[C@@H](CC(=O)O)C(=O)N[C@@H](CCC(=O)O)C(=O)N[C@@H](CCC(=O)O)C(=O)N[C@@H](CO)C(N)=O
On to B8, for which the dissociation constant (Kd) was 6.8 µM in experiment [3], 2.1 µM in experiment [1] and 3.6 µM in experiment [2].

B9: XRCC1 515-529 peptide phosphorylated on Ser518, Thr519, Thr523 and Ser525 (peptide)
peptide: YAG[pS][pT]DEN[pT]D[pS]EEHQ-NH2
modifications: N-terminus assumed
SMILES: C[C@H](NC(=O)[C@@H](N)Cc1ccc(O)cc1)C(=O)NCC(=O)N[C@@H](COP(=O)(O)O)C(=O)N[C@H](C(=O)N[C@@H](CC(=O)O)C(=O)N[C@@H](CCC(=O)O)C(=O)N[C@@H](CC(N)=O)C(=O)N[C@H](C(=O)N[C@@H](CC(=O)O)C(=O)N[C@@H](COP(=O)(O)O)C(=O)N[C@@H](CCC(=O)O)C(=O)N[C@@H](CCC(=O)O)C(=O)N[C@@H](Cc1c[nH]cn1)C(=O)N[C@@H](CCC(N)=O)C(N)=O)[C@@H](C)OP(=O)(O)O)[C@@H](C)OP(=O)(O)O
With B9, the Kd in experiment [1] is 0.87 µM; in experiment [2] it was 11 µM.
